Laboratory results: patent US20260193366A1 (APOGEE THERAPEUTICS, published 2026)

T1: cynomolgus monkey IL-4Rα (cynomolgus monkey, UniProt P24394 26-231 (human entry), limits assumed)
T1 construct: also called Cyno IL-4Rα; cyIL-4Rα
T1 chain: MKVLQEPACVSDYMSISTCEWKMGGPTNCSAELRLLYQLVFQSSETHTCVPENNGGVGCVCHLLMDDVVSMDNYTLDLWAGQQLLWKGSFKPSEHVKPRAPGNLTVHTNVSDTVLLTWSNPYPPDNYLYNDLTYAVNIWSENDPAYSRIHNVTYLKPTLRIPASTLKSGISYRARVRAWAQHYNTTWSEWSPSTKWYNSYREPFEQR

T2: human IL-4Rα (human, UniProt P24394 26-232)
T2 construct: also called Hu IL-4Rα; hIL-4Rα
T2 sequence: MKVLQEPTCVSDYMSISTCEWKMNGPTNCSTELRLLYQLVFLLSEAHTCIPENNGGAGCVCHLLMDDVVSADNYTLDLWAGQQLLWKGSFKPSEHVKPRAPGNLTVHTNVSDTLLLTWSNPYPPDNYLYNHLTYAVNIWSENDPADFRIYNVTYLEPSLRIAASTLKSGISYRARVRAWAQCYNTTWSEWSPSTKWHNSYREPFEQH

T3: hIL-4Rα on cells (human, UniProt P24394 26-825)
T3 sequence: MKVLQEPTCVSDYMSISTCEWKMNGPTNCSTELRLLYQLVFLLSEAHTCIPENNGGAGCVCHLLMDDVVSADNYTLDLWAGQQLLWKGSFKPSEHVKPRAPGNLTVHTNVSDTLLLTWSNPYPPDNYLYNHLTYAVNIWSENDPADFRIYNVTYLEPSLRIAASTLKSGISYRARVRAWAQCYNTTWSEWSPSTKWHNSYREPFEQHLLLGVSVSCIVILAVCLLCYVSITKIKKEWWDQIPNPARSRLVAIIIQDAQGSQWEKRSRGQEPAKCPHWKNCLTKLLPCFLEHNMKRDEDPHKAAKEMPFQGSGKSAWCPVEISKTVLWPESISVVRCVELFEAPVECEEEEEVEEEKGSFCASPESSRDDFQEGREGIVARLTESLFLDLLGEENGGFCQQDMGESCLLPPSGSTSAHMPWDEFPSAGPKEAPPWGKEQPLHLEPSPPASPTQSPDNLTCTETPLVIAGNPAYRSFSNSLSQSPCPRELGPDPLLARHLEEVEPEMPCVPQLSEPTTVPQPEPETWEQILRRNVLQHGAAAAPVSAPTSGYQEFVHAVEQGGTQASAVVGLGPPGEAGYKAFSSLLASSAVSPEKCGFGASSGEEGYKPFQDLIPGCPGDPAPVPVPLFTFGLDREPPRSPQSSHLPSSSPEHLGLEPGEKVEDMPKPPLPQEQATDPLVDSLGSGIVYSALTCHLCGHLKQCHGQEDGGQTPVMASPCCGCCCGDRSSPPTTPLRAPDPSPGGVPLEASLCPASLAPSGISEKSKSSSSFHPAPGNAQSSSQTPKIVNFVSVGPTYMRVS


Tests used:
[1] = biological target: T1, cynomolgus monkey IL-4Rα; experiment: SPR, Carterra LSA;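 note: antibodies captured on an anti-human Fc sensor chip, antigen injected at several concentrations, association and dissociation rates fitted with a 1:1 Langmuir model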
[2] = biological target: T2, human IL-4Rα; experiment: SPR, Carterra LSA;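 note: antibodies captured on an anti-human Fc sensor chip, antigen injected at several concentrations, association and dissociation rates fitted with a 1:1 Langmuir model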
[3] = biological target: T3, hIL-4Rα on cells; experiment: cell-based or functional assay
[4] = biological target: T3, hIL-4Rα on cells; experiment: cell-based or functional assay; remark: listed apart in the source
[5] = biological target: T3, hIL-4Rα on cells; experiment: FACS on HEK293 cells, competitor biotin-hIL-4;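 note: HEK293 cells stably co-expressing hIL-13Rα and hIL-4Rα, stained for 1 h at 4 °C, read-out as mean fluorescence intensity by flow cytometry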
[6] = biological target: T3, hIL-4Rα on cells; experiment: cell-based or functional assay; remark: listed apart in the source
[7] = biological target: T3, hIL-4Rα on cells; experiment: FACS on HEK293 cells, competitor biotin-hIL-13;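 note: stably transduced cells co-expressing both receptor chains, stained cold, with cell-bound signal read as mean fluorescence intensity by flow cytometry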

Row | KD Relative to Dupilumab [1] | Kd [1] | KD Relative to Dupilumab [2] | Kd [2] | Relative Inhibition of IL-4 induced TF-1 Proliferation IC50 [3] | Relative Inhibition of IL-13 induced TF-1 Proliferation IC50 [3] | Relative Inhibition of IL-4 induced pSTAT6 IC50 [4] | Relative Inhibition of IL-13 induced pSTAT6 IC50 [4] | Relative Blockade of IL-4 Binding IC50 [5] | Relative Inhibition of IL-4 induced TARC IC50 [6] | Relative Inhibition of IL-13 induced TARC IC50 [6] | Relative Blockade of IL-13 Binding IC50 [7] | Binder
1 | 2.03 | 1280 nM | 1.11 | 0.0125 nM | 1.15 relative to dupilumab | 1.29 relative to dupilumab | 1.18 relative to dupilumab | 3.76 relative to dupilumab | 1.21 relative to dupilumab | 2.53 relative to dupilumab | 5.72 relative to dupilumab | 1.23 relative to dupilumab | Construct 44 (mAb485) (antibody, IgG4, V domains shown, VH/VL only) VH: EVQLVESGGGLEQPGGSLRLSCAGSGFTFRDFAMTWVRQAPGKGLEWVSSISGSGGNIYYADSVKGRFTISRDNSKNTLYLQMNSLRAEDTAVYYCAKDRLSKTIRPRYYGLDVWGQGTTVTVSS VL: DIVMTQSPLSLPVTPGEPASISCRSTQSLLYSIGKNYVDWYLQKSGQSPQLLIYEGNNRASGVPDRFSGSGSGTDFTLKISRVEAEDVGFYYCMQSLTSPYTFGQGTKLEIK
2 | 0.24 | 150 nM | 0.84 | 0.00943 nM | 1.13 relative to dupilumab | 0.941 relative to dupilumab | 0.633 relative to dupilumab | 2.29 relative to dupilumab | 1.02 relative to dupilumab | 1.56 relative to dupilumab | 2.3 relative to dupilumab | 1.13 relative to dupilumab | Construct 43 (mAb482) (antibody, IgG4, V domains shown, VH/VL only) VH: EVQLVESGGGLEQPGGSLRLSCAGSGFTFRDFAMTWVRQAPGKGLEWVSSISGGGGNTYYADSVKGRFTISRDNSKNTLYLQMNSLRAEDTAVYYCAKDRLSIAVRPRYYGLDVWGQGTTVTVSS VL: DIVMTQSPLSLPVTPGEPASISCTSSQSLLYSIGYNYVDWYLQKSGQSPQLLIYLGSKRASGVPDRFSGSGSGTDFTLKISRVEAEDVGFYYCMQSLTSPYTFGQGTKLEIK

Second part, the binder before the results:

Row | Binder | KD Relative to Dupilumab [1] | Kd [1] | KD Relative to Dupilumab [2] | Kd [2] | Relative Inhibition of IL-4 induced TF-1 Proliferation IC50 [3] | Relative Inhibition of IL-13 induced TF-1 Proliferation IC50 [3] | Relative Inhibition of IL-4 induced pSTAT6 IC50 [4] | Relative Inhibition of IL-13 induced pSTAT6 IC50 [4] | Relative Blockade of IL-4 Binding IC50 [5] | Relative Inhibition of IL-4 induced TARC IC50 [6] | Relative Inhibition of IL-13 induced TARC IC50 [6] | Relative Blockade of IL-13 Binding IC50 [7]
3 | Construct 37 (mAb470) (antibody, IgG4, V domains shown, VH/VL only) VH: EVQLVESGGGLEQPGGSLRLSCAGSGFTFRTYAMTWVRQAPGKGLEWVSSISGGGGNTYYADSVKGRFTISRDNSKNTLYLQMNSLRAEDTAVYYCAKDRLSVTVRPRYYGLDVWGQGTTVTVSS VL: DIVMTQSPLSLPVTPGEPASISCRASQSLLYSVGYNYVDWYLQKSGQSPQLLIYLGNNRASGVPDRFSGSGSGTDFTLKISRVEAEDVGFYYCMQSLTSPYTFGQGTKLEIK | 0.23 | 143 nM | 1.03 | 0.0116 nM | 0.943 relative to dupilumab | 0.919 relative to dupilumab | 0.713 relative to dupilumab | 1.22 relative to dupilumab | 1.08 relative to dupilumab | 1.16 relative to dupilumab | 0.868 relative to dupilumab | 1.05 relative to dupilumab
4 | Construct 41 (mAb478) (antibody, IgG4, V domains shown, VH/VL only) VH: EVQLVESGGGLEQPGGSLRLSCAGSGFTFRDFAMTWVRQAPGKGLEWVSSISGGGGNTYYADSVKGRFTISRDNSKNTLYLQMNSLRAEDTAVYYCAKDRVSITIRPRYYGLDVWGQGTTVTVSS VL: DIVMTQSPLSLPVTPGEPASISCTASQSLLYSIGYNYVDWYLQKSGQSPQLLIYLGNKRASGVPDRFSGSGSGTDFTLKISRVEAEDVGFYYCMQAYNSPYTFGQGTKLEIK | 0.39 | 248 nM | 0.86 | 0.00973 nM | 0.82 relative to dupilumab | 1.15 relative to dupilumab | 1.18 relative to dupilumab | 1.97 relative to dupilumab | 1.09 relative to dupilumab | 1.53 relative to dupilumab | 1.35 relative to dupilumab | 1.15 relative to dupilumab
5 | Construct 42 (mAb481) (antibody, IgG4, V domains shown, VH/VL only) VH: EVQLVESGGGLEQPGGSLRLSCAGSGFTFRTYAMTWVRQAPGKGLEWVSSISGDGSNTYYADSVKGRFTISRDNSKNTLYLQMNSLRAEDTAVYYCAKDRVSITIRPRYYGLDVWGQGTTVTVSS VL: DIVMTQSPLSLPVTPGEPASISCTASQSLLYSIGYNYVDWYLQKSGQSPQLLIYLGNKRASGVPDRFSGSGSGTDFTLKISRVEAEDVGFYYCMQALTTPYTFGQGTKLEIK | 0.25 | 158 nM | 0.98 | 0.0111 nM | 1.19 relative to dupilumab | 1.19 relative to dupilumab | 0.81 relative to dupilumab | 2.78 relative to dupilumab | 1.32 relative to dupilumab | 2.02 relative to dupilumab | 1.62 relative to dupilumab | 1.34 relative to dupilumab
6 | Construct 39 (mAb473) (antibody, IgG4, V domains shown, VH/VL only) VH: EVQLVESGGGLEQPGGSLRLSCAGSGFTFRDSAMTWVRQAPGKGLEWVSSISGSGDNTYYADSVKGRFTISRDNSKNTLYLQMNSLRAEDTAVYYCAKDRLSITVRPRYYGLDVWGQGTTVTVSS VL: DIVMTQSPLSLPVTPGEPASISCRSSQSLLYSIGKNYVDWYLQKSGQSPQLLIYLGNKRASGVPDRFSGSGSGTDFTLKISRVEAEDVGFYYCMQALGSPYTFGQGTKLEIK | 0.27 | 168 nM | 0.92 | 0.0104 nM | 1.18 relative to dupilumab | 1.21 relative to dupilumab | 0.81 relative to dupilumab | 2.17 relative to dupilumab | 1.09 relative to dupilumab | 1.65 relative to dupilumab | 5.23 relative to dupilumab | 1.05 relative to dupilumab
7 | Construct 40 (mAb476) (antibody, IgG4, V domains shown, VH/VL only) VH: EVQLVESGGGLEQPGGSLRLSCAGSGFTFRDFAMTWVRQAPGKGLEWVSSVSGDGGNTYYADSVKGRFTISRDNSKNTLYLQMNSLRAEDTAVYYCAKDRLSKTIRPRYYGLDVWGQGTTVTVSS VL: DIVMTQSPLSLPVTPGEPASISCRSSQSVLYSIGYNYVDWYLQKSGQSPQLLIYLGNKRASGVPDRFSGSGSGTDFTLKISRVEAEDVGFYYCMQAYQSPYVFGQGTKLEIK | 0.22 | 136 nM | 1.11 | 0.0126 nM | 0.968 relative to dupilumab | 1.01 relative to dupilumab | 0.633 relative to dupilumab | 1.89 relative to dupilumab | 1.16 relative to dupilumab | 1.6 relative to dupilumab | 4.7 relative to dupilumab | 1.19 relative to dupilumab
